From patent US20110009361A1

molecular target: IL-13 receptor (IL-4Rα/IL-13Rα1) on TF-1 cells (human) (UniProt P78552); assay: cell-based or functional assay
Sequence (P78552 22-427, chain 1 of 2): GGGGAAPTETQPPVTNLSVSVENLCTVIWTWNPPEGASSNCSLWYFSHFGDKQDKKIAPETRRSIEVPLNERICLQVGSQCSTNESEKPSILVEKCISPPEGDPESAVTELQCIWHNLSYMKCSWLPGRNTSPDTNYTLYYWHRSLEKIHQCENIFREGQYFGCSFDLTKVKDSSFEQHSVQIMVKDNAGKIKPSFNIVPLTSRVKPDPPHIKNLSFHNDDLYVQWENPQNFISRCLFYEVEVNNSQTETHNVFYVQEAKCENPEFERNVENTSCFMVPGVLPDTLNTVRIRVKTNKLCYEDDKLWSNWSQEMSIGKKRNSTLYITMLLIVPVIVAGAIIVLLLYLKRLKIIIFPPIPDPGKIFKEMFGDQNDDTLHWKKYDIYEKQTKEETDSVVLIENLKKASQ
Sequence (P24394 26-825, chain 2 of 2, further chain): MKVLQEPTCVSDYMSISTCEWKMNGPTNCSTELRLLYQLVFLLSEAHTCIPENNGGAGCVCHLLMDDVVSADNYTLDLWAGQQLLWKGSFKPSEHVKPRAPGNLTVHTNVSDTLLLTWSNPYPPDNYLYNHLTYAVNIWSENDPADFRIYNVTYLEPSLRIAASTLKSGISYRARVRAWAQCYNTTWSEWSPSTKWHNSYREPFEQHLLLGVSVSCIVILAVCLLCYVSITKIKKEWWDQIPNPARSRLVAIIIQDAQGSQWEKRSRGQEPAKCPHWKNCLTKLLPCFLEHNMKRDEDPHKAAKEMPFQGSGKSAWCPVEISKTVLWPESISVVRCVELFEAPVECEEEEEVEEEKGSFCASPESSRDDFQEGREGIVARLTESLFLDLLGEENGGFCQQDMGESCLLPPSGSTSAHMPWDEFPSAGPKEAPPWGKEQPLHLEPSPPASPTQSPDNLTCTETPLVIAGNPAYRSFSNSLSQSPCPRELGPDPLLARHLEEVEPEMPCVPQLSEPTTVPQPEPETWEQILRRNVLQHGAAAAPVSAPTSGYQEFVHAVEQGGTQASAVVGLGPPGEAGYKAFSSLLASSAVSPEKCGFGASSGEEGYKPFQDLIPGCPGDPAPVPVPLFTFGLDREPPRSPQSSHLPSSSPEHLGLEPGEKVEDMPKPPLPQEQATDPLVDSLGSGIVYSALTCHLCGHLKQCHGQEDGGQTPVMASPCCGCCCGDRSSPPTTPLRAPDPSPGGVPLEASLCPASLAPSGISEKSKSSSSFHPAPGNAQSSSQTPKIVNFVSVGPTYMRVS

Concentration of IL-13 required for 50% TF-1 cell proliferation (ED50, ave) | Substance
1.33 ng/mL | IL-13Q111 K97A (from UniProt P35225 35-146) (ligand)
3.2 ng/mL | IL-13Q111 R108A (from UniProt P35225 35-146) (ligand)
1.26 ng/mL | human IL-13 with glutamine at position 111 (IL-13Q111) (from UniProt P35225 35-146) (ligand)
2.64 ng/mL | IL-13Q111 K25A (from UniProt P35225 35-146) (ligand)

The remaining lines, values behind:

Substance | Concentration of IL-13 required for 50% TF-1 cell proliferation (ED50, ave)
IL-13Q111 K105A (from UniProt P35225 35-146) (ligand) | 22.6 ng/mL
IL-13Q111 K104A (from UniProt P35225 35-146) (ligand) | 46.2 ng/mL
wild type human IL-13 with arginine in the 111 position (from UniProt P35225 35-146) (ligand) | 1.2 ng/mL
IL-13Q111 H102A (from UniProt P35225 35-146) (ligand) | 5.31 ng/mL
